Assay results reported in patent US20210388087A1 (Chugai, published 2021).
Substitutions are numbered along the chain they refer to. In names and notes the source's numbering stands.

B1: dBBDu183H F100gS / dBBDu072L (antibody, name in Kabat numbering, V domains shown)
VH: QVQLVESGGGLVQPGRSLRLSCAASGFTFSNAWMHWVRQAPGKGLEWVAQIKDKGNAYAAYYAPSVKGRFTISRDDSKNSIYLQMNSLKTEDTAVYYCHYVHYASASTVLPASGVDAWGQGTTVTVSS
VL: DIVMTQSPLSLPVTPGEPASISCQASQELVHMNRNTYLHWYQQKPGQAPRLLIYKVSNRFPGVPDRFSGSGSGTDFTLKISRVEAEDVGVYYCAQGTSVPFTFGQGTKLEIK
notes: as m1, one VH change
B2: dBBDu183H H96V / dBBDu072L (antibody, name in Kabat numbering, V domains shown)
VH: B1 VH with H102V, S113F
VL: B1 VL
notes: as m1, one VH change
B3: dBBDu183H K64R / dBBDu072L (antibody, name in Kabat numbering, V domains shown)
VH: B1 VH with K67R, S113F
VL: B1 VL
notes: as m1, one VH change
B4: dBBDu183H L100dV / dBBDu072L (antibody, name in Kabat numbering, V domains shown)
VH: B1 VH with L110V, S113F
VL: B1 VL
notes: as m1, one VH change
B5: dBBDu183H L100dE / dBBDu072L (antibody, name in Kabat numbering, V domains shown)
VH: B1 VH with L110E, S113F
VL: B1 VL
notes: as m1, one VH change
B6: dBBDu183H G65T / dBBDu072L (antibody, name in Kabat numbering, V domains shown)
VH: B1 VH with G68T, S113F
VL: B1 VL
notes: as m1, one VH change
B7: dBBDu183H K64W / dBBDu072L (antibody, name in Kabat numbering, V domains shown)
VH: B1 VH with K67W, S113F
VL: B1 VL
notes: as m1, one VH change
B8: dBBDu183H G65N / dBBDu072L (antibody, name in Kabat numbering, V domains shown)
VH: B1 VH with G68N, S113F
VL: B1 VL
notes: as m1, one VH change
B9: dBBDu183H K64Y / dBBDu072L (antibody, name in Kabat numbering, V domains shown)
VH: B1 VH with K67Y, S113F
VL: B1 VL
notes: as m1, one VH change
B10: dBBDu183H H93N / dBBDu072L (antibody, name in Kabat numbering, V domains shown)
VH: B1 VH with H99N, S113F
VL: B1 VL
notes: as m1, one VH change
B11: dBBDu183H H96Y / dBBDu072L (antibody, name in Kabat numbering, V domains shown)
VH: B1 VH with H102Y, S113F
VL: B1 VL
notes: as m1, one VH change
B12: dBBDu183H G65Q / dBBDu072L (antibody, name in Kabat numbering, V domains shown)
VH: B1 VH with G68Q, S113F
VL: B1 VL
notes: as m1, one VH change
B13: dBBDu183H F100gV / dBBDu072L (antibody, name in Kabat numbering, V domains shown)
VH: B1 VH with S113V
VL: B1 VL
notes: as m1, one VH change
B14: dBBDu183H L100dQ / dBBDu072L (antibody, name in Kabat numbering, V domains shown)
VH: B1 VH with L110Q, S113F
VL: B1 VL
notes: as m1, one VH change
B15: dBBDu183H G65S / dBBDu072L (antibody, name in Kabat numbering, V domains shown)
VH: B1 VH with G68S, S113F
VL: B1 VL
notes: as m1, one VH change
B16: dBBDu183H G65W / dBBDu072L (antibody, name in Kabat numbering, V domains shown)
VH: B1 VH with G68W, S113F
VL: B1 VL
notes: as m1, one VH change
B17: dBBDu183H H96F / dBBDu072L (antibody, name in Kabat numbering, V domains shown)
VH: B1 VH with H102F, S113F
VL: B1 VL
notes: as m1, one VH change
B18: dBBDu183H K64Q / dBBDu072L (antibody, name in Kabat numbering, V domains shown)
VH: B1 VH with K67Q, S113F
VL: B1 VL
notes: as m1, one VH change
B19: dBBDu183H K64D / dBBDu072L (antibody, name in Kabat numbering, V domains shown)
VH: B1 VH with K67D, S113F
VL: B1 VL
notes: as m1, one VH change
B20: dBBDu183H G65R / dBBDu072L (antibody, name in Kabat numbering, V domains shown)
VH: B1 VH with G68R, S113F
VL: B1 VL
notes: as m1, one VH change
B21: dBBDu183H P61D / dBBDu072L (antibody, name in Kabat numbering, V domains shown)
VH: B1 VH with P64D, S113F
VL: B1 VL
notes: as m1, one VH change
B22: dBBDu183H F100gT / dBBDu072L (antibody, name in Kabat numbering, V domains shown)
VH: B1 VH with S113T
VL: B1 VL
notes: as m1, one VH change
B23: dBBDu183H G65H / dBBDu072L (antibody, name in Kabat numbering, V domains shown)
VH: B1 VH with G68H, S113F
VL: B1 VL
notes: as m1, one VH change
B24: dBBDu183H H96T / dBBDu072L (antibody, name in Kabat numbering, V domains shown)
VH: B1 VH with H102T, S113F
VL: B1 VL
notes: as m1, one VH change
B25: dBBDu183H G65E / dBBDu072L (antibody, name in Kabat numbering, V domains shown)
VH: B1 VH with G68E, S113F
VL: B1 VL
notes: as m1, one VH change
B26: dBBDu183H F100gY / dBBDu072L (antibody, name in Kabat numbering, V domains shown)
VH: B1 VH with S113Y
VL: B1 VL
notes: as m1, one VH change
B27: dBBDu183H L100dS / dBBDu072L (antibody, name in Kabat numbering, V domains shown)
VH: B1 VH with L110S, S113F
VL: B1 VL
notes: as m1, one VH change
B28: dBBDu183H K64F / dBBDu072L (antibody, name in Kabat numbering, V domains shown)
VH: B1 VH with K67F, S113F
VL: B1 VL
notes: as m1, one VH change
B29: dBBDu183H K64H / dBBDu072L (antibody, name in Kabat numbering, V domains shown)
VH: B1 VH with K67H, S113F
VL: B1 VL
notes: as m1, one VH change
B30: dBBDu183H K64T / dBBDu072L (antibody, name in Kabat numbering, V domains shown)
VH: B1 VH with K67T, S113F
VL: B1 VL
notes: as m1, one VH change
B31: dBBDu183H K64N / dBBDu072L (antibody, name in Kabat numbering, V domains shown)
VH: B1 VH with K67N, S113F
VL: B1 VL
notes: as m1, one VH change
B32: dBBDu183H H96W / dBBDu072L (antibody, name in Kabat numbering, V domains shown)
VH: B1 VH with H102W, S113F
VL: B1 VL
notes: as m1, one VH change
B33: dBBDu183H G65V / dBBDu072L (antibody, name in Kabat numbering, V domains shown)
VH: B1 VH with G68V, S113F
VL: B1 VL
notes: as m1, one VH change
B34: dBBDu183H G65F / dBBDu072L (antibody, name in Kabat numbering, V domains shown)
VH: B1 VH with G68F, S113F
VL: B1 VL
notes: as m1, one VH change
B35: dBBDu183H K64V / dBBDu072L (antibody, name in Kabat numbering, V domains shown)
VH: B1 VH with K67V, S113F
VL: B1 VL
notes: as m1, one VH change
B36: dBBDu183H G65Y / dBBDu072L (antibody, name in Kabat numbering, V domains shown)
VH: B1 VH with G68Y, S113F
VL: B1 VL
notes: as m1, one VH change
B37: dBBDu183H G65K / dBBDu072L (antibody, name in Kabat numbering, V domains shown)
VH: B1 VH with G68K, S113F
VL: B1 VL
notes: as m1, one VH change
B38: dBBDu183H G65D / dBBDu072L (antibody, name in Kabat numbering, V domains shown)
VH: B1 VH with G68D, S113F
VL: B1 VL
notes: as m1, one VH change
B39: dBBDu183H P61E / dBBDu072L (antibody, name in Kabat numbering, V domains shown)
VH: B1 VH with P64E, S113F
VL: B1 VL
notes: as m1, one VH change
B40: dBBDu183H K64S / dBBDu072L (antibody, name in Kabat numbering, V domains shown)
VH: B1 VH with K67S, S113F
VL: B1 VL
notes: as m1, one VH change
B41: dBBDu183H F100gW / dBBDu072L (antibody, name in Kabat numbering, V domains shown)
VH: B1 VH with S113W
VL: B1 VL
notes: as m1, one VH change
B42: dBBDu183H L100dW / dBBDu072L (antibody, name in Kabat numbering, V domains shown)
VH: B1 VH with L110W, S113F
VL: B1 VL
notes: as m1, one VH change
B43: dBBDu183H L100dK / dBBDu072L (antibody, name in Kabat numbering, V domains shown)
VH: B1 VH with L110K, S113F
VL: B1 VL
notes: as m1, one VH change
B44: dBBDu183H K64G / dBBDu072L (antibody, name in Kabat numbering, V domains shown)
VH: B1 VH with K67G, S113F
VL: B1 VL
notes: as m1, one VH change

These binders were tested against T1, Human CD137 ECD (human) (assay: SPR, vs parent H183/L072).
T1 construct: also called 4-1BB
T1 sequence (chain, as listed by the source limits assumed): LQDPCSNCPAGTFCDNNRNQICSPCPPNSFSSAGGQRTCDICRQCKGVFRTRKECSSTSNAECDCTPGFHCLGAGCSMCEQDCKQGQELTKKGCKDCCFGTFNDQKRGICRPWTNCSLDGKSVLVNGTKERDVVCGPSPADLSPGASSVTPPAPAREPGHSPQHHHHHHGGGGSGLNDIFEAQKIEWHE

Binder	fold change of affinity [fold]
B1	0.4
B2	0.8
B3	1.1
B4	0.5
B5	0.4
B6	1.3
B7	1.2
B8	1.2
B9	1.1
B10	0.1
B11	3.3
B12	1.2
B13	0.5
B14	0.5
B15	1.2
B16	1.3
B17	1.4
B18	1.1
B19	1.1
B20	1.1
B21	0.7
B22	0.7

Binder	fold change of affinity [fold]
B23	1.2
B24	0.5
B25	1.3
B26	1
B27	0.5
B28	1.1
B29	1.1
B30	1.1
B31	1
B32	1.6
B33	1.2
B34	1.3
B35	1
B36	1.3
B37	1.1
B38	1.3
B39	0.7
B40	1.2
B41	0.6
B42	0.2
B43	0.7
B44	1.1
